Measured values reported in patent publication US10407488B2, “Therapy for treatment or prevention of conditions associated with bleeding or hypocoagulation” (THE REGENTS OF THE UNIVERSITY OF CALIFORNIA, priority 2013, dated 2019).
Several values for one entry are separate records, joined by “and”; a condition that tells them apart may be missing. Equal entries are not always repeated.

Assays:
[1] = tested on: thrombin generation in normal human plasma; test: Thrombin generation in NHP in the presence of rivaroxaban or apixaban; type: biochemical; conditions: dose titration in NHP
Experimental: Thrombin generation or Endogenous Thrombin Potential (ETP) assays were performed as described. Briefly, plasma samples supplemented with CTI, TF, PCPS were preincubated […] in the presence or absence of rivaroxaban, apixaban, Kcentra®, NovoSeven® or ^superFVa. Thrombin generation was initiated by addition of CaCl2 and Z-Gly-Gly-Arg-AMC in HBS/0.5% BSA. The final reaction mixture contained, 50% plasma, 0.725 μM CTI, 0.2 Pm TF, 4 μM PCPS vesicles, 0.5 mM Z-GGR-AMC, 7.6 mM CaCl2 in a total volume of 100 μl. Concentrations of rivaroxaban, apixaban, Kcentra®, NovoSeven® or ^superFVa are indicated in the result section and in the figure legends. Fluorescence was measured at excitation/emission wavelengths of […] using Gemini EM fluorescent plate reader (Molecular Devices). Fluorescence time course data were converted to Nm thrombin as described. ETP, defined as the area under the curve (AUC) and the peak height were determined using Origin software.

[2] = tested on: thrombin generation in normal human plasma with rhAPC; test: Thrombin generation in normal human plasma in the presence of rhAPC; type: biochemical; conditions: human plasma
Experimental: (§1) BU titer values for FVIII antibodies added to FVIII-deficient plasma were determined using a modified Nijmegen Bethesda assay (Barrow and Lollar; JTH 2006, 4:2223-2229). Briefly, antibody was serially diluted in HBS with 0.05% Tween 80 and mixed 1:1 with pooled normal plasma that was supplemented with 100 mM Imidazole, pH 7.0. Samples were incubated at 37° C. for 2 hours then assayed by aPTT with APTT XL reagent (Pacific Hemostasis). A standard curve was derived from a serial dilution of normal plasma into FVIII deficient plasma that was also mixed 1:1 with HBST and incubated at 37° C. for 2 hours. Percent FVIII activity was plotted versus mg/ml of antibody and residual activity of 50% was defined as 1 BU/ml. In addition, endogenous thrombin potential (ETP) assays were performed as described (3). Briefly FVa mutants or saline were added to human or murine plasma (George King Bio-Medical; mouse source, 50% v/v) supplemented with […] corn trypsin inhibitor (Haematologic Technologies), 10 mM CaCl2, 10 μM phospholipid vesicles (80% phosphatidylcholine, 20% phosphatidylserine, prepared as described (6), 0.2 pM soluble tissue factor (Innovin®, Dade Behring), and 0.4 mM Z-Gly-Gly-Arg-AMC (thrombin substrate, Bachem) in HBS. After mixing, 100 μL was transferred to a FluoroNunc microtiter plate at 37° C. to monitor fluorescence (excitation at 360 nm/emission at 460 nm; Gemini EM fluorescent plate reader (Molecular Devices)). Fluorescence time course data were converted to nM thrombin as described (7). ETP, defined as the area under the curve, was determined using Prism 5.04 (Graphpad).
(§2) APC-mediated inactivation of FVa was analyzed in ETP assays and aPTT clotting assays. FVa mutants were incubated with equal volumes of either recombinant human APC (Xigris®) or buffer in human and murine Balb/c plasma.

[3] = tested on: thrombin generation in murine Balb/c plasma with rhAPC; test: Thrombin generation in murine Balb/c plasma in the presence of rhAPC; type: biochemical, mouse
Experimental: as §1, §2

[4] = tested on: aPTT clotting time in human plasma; test: aPTT clotting assay in human plasma with rhAPC; type: biochemical; conditions: human plasma
Experimental: as §2
(§3) Plasma (50 μL) was mixed with 50 μL of a PTT reagent (APTT-XL, Pacific Hemostasis) and incubated at 37° C. for 3 minutes in the presence of FVa either with recombinant human APC or buffer. Following addition of 25 μL of 50 mM CaCl2 in HBS, 0.5% BSA, the clotting time was recorded using an ST4 coagulometer (Diagnostica Stago).

[5] = tested on: aPTT clotting time in murine plasma; test: aPTT clotting assay in murine plasma with rhAPC; type: biochemical, mouse
Experimental: as §2, §3

Balb/c mice [6] = test: Ex vivo whole blood aPTT after intravenous APC in Balb/c mice; set-up: species or system mouse; conditions: for mean whole blood aPTT clotting time: 2 minutes after intravenous APC 0.5 mg/kg, saline 30 sec
Experimental: Recombinant murine APC was administered intravenously to Balb/c mice by tail vein injection 2 minutes prior to retroorbital blood harvest in siliconized microcapillaries (75 μL) prefilled with 20 μL Sodium-Citrate (3.8%). Whole blood aPTT was performed immediately, whereby 50 μL of blood were mixed with 50 μL of aPTT reagent (APTT-XL, Pacific Hemostasis) and incubated at 37° C. for 3 minutes in the presence of FVa or buffer. Following addition of 25 μL of 130 mM CaCl2 in HBS, 0.5% BSA, the clotting time was recorded using an ST4 coagulometer (Diagnostica Stago).

Balb/c mice [7] = test: Tail clip bleeding assay, APC-induced bleeding in Balb/c mice; type: in vivo, mouse
Experimental: Mice were anesthetized with Isoflurane 3%, placed on temperature controlled heating pads (37° C.), and the distal portion of the tail was cut at 1.5 mm diameter after which the tail was immersed in a predefined volume of 37° C. saline (0.9% NaCl) for 20 minutes. To study effects on bleeding and clot stability, tubes were changed after 10 minutes to collect blood for the first and second 10 minutes separately. Blood loss was determined by the hemoglobin concentration in the saline solution after red cell lysis with 2% acetic acid and measured by absorbance at 490 nm. Using a hemoglobin standard derived from defined blood volumes, blood loss was calculated assuming a hematocrit of 46% and expressed in μL/g body weight. Groups of Balb/c mice were injected intravenously (tail vein) with equal volumes (200 μL) of ^superFVa or saline 2 minutes prior to intravenous injection of rhAPC (Xigris®). Immediately after APC injection tail cut was performed. All agents were diluted in sterile sodium chloride 0.9% for injection (Hospira Inc).

Balb/c mice [8] = test: Liver laceration bleeding assay, APC-induced bleeding in Balb/c mice; type: in vivo; conditions: for mortality rate: APC-induced bleeding after liver laceration
Experimental: Mice were anesthetized with Isofluorane 3% and the abdomen was opened by substernal blunt midline dissection. […] Immediately after laceration mice were positioned prone into a small weighing dish (8 cm diameter) filled with saline (37° C., 13 mL), transferred into the anesthesia chamber which rested on a heating pad (37° C.). Anesthesia was maintained at 3% Isofluorane and dishes were changed after 10 minutes to collect blood for the first and second 10 minutes separately. Blood loss was determined as described for the tail clip model. Groups of Balb/c mice were injected intravenously (tail vein) with equal volumes (200 μL) of ^superFVa or saline 2 minutes prior to intravenous injection of plasma-derived human APC, followed immediately by liver laceration. All agents were diluted in sterile sodium chloride 0.9% for injection (Hospira Inc).

[9] = plasma derived human APC 1.25 mg/kg
[10] = concentrations where ^superFVa restores

COc1ccc(-n2nc(C(N)=O)c3c2C(=O)N(c2ccc(N4CCCCC4=O)cc2)CC3)cc1 [apixaban, Apixaban]
concentration for optimal suppression of ETP [1]: 200 nM

O=C(NC[C@H]1CN(c2ccc(N3CCOCC3=O)cc2)C(=O)O1)c1ccc(Cl)s1 [rivaroxaban, Rivaroxaban]
concentration for optimal suppression of ETP [1]: 200 nM

APC: Activated Protein C; recombinant human (Xigris®, Eli Lilly) or plasma-derived human APC
optimal concentration for maximal suppression of ETP [2]: 5 nM | optimal concentration for maximal suppression of ETP [3]: 100 nM | optimal concentration for aPTT prolongation to ~100 seconds [4]: 10 nM | optimal concentration for aPTT prolongation to ~100 seconds [5]: 25 nM | mean whole blood aPTT clotting time (Balb/c mice [6]): 67 s | mean blood loss (Balb/c mice [7]; APC 1.25 mg/kg iv, combined 20 minutes after tail clip): 27 µL/g | mean blood loss (Balb/c mice [7]; APC 1.25 mg/kg, first 10 minutes after tail clip): 13.7 µL/g | mean blood loss (Balb/c mice [7]; APC 1.25 mg/kg, second 10 minutes after tail clip): 13.2 µL/g | mean blood loss (Balb/c mice [7]; APC, first 10 minutes after tail clip): 13.7 µL/g | dose that resulted in notable bleeding (Balb/c mice [7]; single intravenous administration, in vivo dose response): 1.25 mg/kg | mean blood loss (Balb/c mice [7]; wt APC 1.25 mg/kg iv, tail clip): 27 µL/g | mean blood loss (Balb/c mice [8]; APC 1.25 mg/kg iv, 20 minutes after liver laceration): 40 µL/g | mean blood loss (Balb/c mice [8]; APC 1.25 mg/kg iv, 20 minutes after liver laceration, listed as wt APC): 49 µL/g | mean blood loss (Balb/c mice [8]; APC 1.25 mg/kg, first 10 minutes after liver laceration): 35.1 µL/g | mortality rate (Balb/c mice [8]): 54% and ~50% | mortality rate (Balb/c mice [8]; listed as wt APC): ~40% | mice died during the 1st 10 minutes after injury (Balb/c mice [8]; [9]): Four of 13 | more mice died during the 2nd 10 minutes (Balb/c mice [8]; [9]): Three

FVa: wild-type recombinant human activated Factor V used as comparator [reference compound]
effect on thrombin generation suppressed by APC [2, 10]: did not show effects | effect on thrombin generation suppressed by APC [3, 10]: did not show effects | aPTT ([4]; 0.05 U/mL FVa variants, 10 nM APC, ~100 seconds without FVa): ~80 s | aPTT ([5]; 5 U/mL FVa variants, APC, ~100 seconds without FVa): ~70 s | effect on whole blood aPTT clotting times (Balb/c mice [6]; 1 nM added to whole blood after iv APC 0.5 mg/kg): failed to show a significant effect | mean whole blood aPTT (Balb/c mice [6]; FVa variant added ex vivo to whole blood drawn after APC 0.5 mg/kg injection): 50 s

B1: murine recombinant wt APC: Recombinant murine APC purified and prepared as previously described (protein)
chain: ANSFLEEMRPGSLERECMEEICDFEEAQEIFQNVEDTLAFWIKYFDGDQCSAPPLDHQCDSPCCGHGTCIDGIGSFSCSCDKGWEGKFCQQELRFQDCRVNNGGCLHYCLEESNGRRCACAPGYELADDHMRCKSTVNFPCGKLGRWIEKKRKILKRDTDLEDELEPDPRIVNGTLTKQGDSPWQAILLDSKKKLACGGVLIHTSWVLTAAHCVEGTKKLTVRLGEYDLRRRDHWELDLDIKEILVHPNYTRSSSDNDIALLRLAQPATLSKTIVPICLPNNGLAQELTQAGQETVVTGWGYQSDRIKDGRRNRTFILTFIRIPLVARNECVEVMKNVVSENMLCAGIIGDTRDACDGDSGGPMVVFFRGTWFLVGLVSWGEGCGHTNNYGIYTKVGSYLKWIHSYIGEKGVSLKSQKL
mean whole blood aPTT clotting time (Balb/c mice [6]): ~60 s
